Test results reported in article PMC6547725.

Target: KRAS (aa 1–170, Homo sapiens), wild type (Homo sapiens) (UniProt P01116)

RasGAP (aa 722–1056, Homo sapiens) (domain or fragment)
GTPase activity of KRAS wild type (GTP hydrolysis over time, HPLC) with 0.25 μM RAS-GAP; at 2.5 μM and 25 μM too fast to be resolved: 3.5 fold
